The labels stand for the following.
B1: library; numbered along this chain (parent)
chain: MEVVDPQQLGMFTEGELMSVGMDTFIHRIDSTEVIYQPRRKRAKLIGKYLMGDLLGEGSYGKVKEVLDSETLCRRAVKILKKKKLRRIPNGEANVKKEIQLLRRLRHKNVIQLVDVLYNEEKQKMYMVMEYCVCGMQEMLDSVPEKRFPVCQAHGYFCQLIDGLEYLHSQGIVHKDIKPGNLLLTTGGTLKISDLGVAEALHPFAADDTCRTSQGSPAFQPPEIANGLDTFSGFKVDIWSAGVTLYNITTGLYPFEGDNIYKLFENIGKGSYAIPGDCGPPLSDLLKGMLEYEPAKRFSIRQIRQHSWFRKKHPPAEAPVPIPPSPDTKDRWRSMTVVPYLEDLHGADEDEDLFDIEDDIIYTQDFTVPGQVPEEEASHNGQRRGLPKAVCMNGTEAAQLSTKSRAEGRAPNPARKACSASSKIRRLSACKQQ

± gives the uncertainty stated by the source.

Variants of B1 are the subject of this data set. The data set is described as follows: STK11 functional score (HeLa growth suppression), rescaled enrichment; synonymous median = 1, nonsense median = 0 (normalised score). The conditions noted are these: with HeLa; variant type: missense. An outline of the steps: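 Codon-randomised (POPCode) libraries of codon-optimised STK11 were integrated by Bxb1 at an AAVS1 landing pad in HeLa, in three regions each transfected three times. Integrants (BFP-negative, mCherry-positive) were FACS-sorted 4–5 days after electroporation and grown about two weeks; tiled gDNA amplicons were sequenced on NextSeq (~2 million reads per tile). The functional score is the wild-type-corrected post/pre-selection log ratio, rescaled to synonymous and nonsense medians, merged over codons and replicate transfections, with bootstrapped error.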
Turning to MEVVDPQQLGMFTEGELMSVGMDTFIHRIDSTEVIYQPRRKRAKLIGKYLMGDLLGEGSYGKVKEVLDSETLCRRAVKILKKKKLRRIPNGEANVKKEIQLLRRLRHKNVIQLVDVLYNEEKQKMYMVMEYCVCGMQEMLDSVPEKRFPVCQAHGYFCQLIDGLEYLHSQGIVHKDIKPGNLLLTTGGTLKISDLGVAEALHPFAADDTCRTSQGSPAFQPPEIANGLDTFSGFKVDIWSAGVTLYNITTGLYPFEGDNIYKLFENIGKGSYAIPGDCGPPLSDLLKGMLEYEPAKRFSIRQIRQHSWFRKKHPPAEAPVPIPPSPDTKDRWRSMTVVPYLEDLHGADEDEDLFDIEDDIIYTQDFTVPGQVPEEEASHNGQRRGLPKAVCMNGTEAAQLSTKSRAEGRAPCPARKACSASSKIRRLSACKQQ [N412C], the STK11 functional score was found to be 1.11 ± 0.1.
In the case of MEVVDPQQLGMFTEGELMSVGMDTFIHRIDSTEVIYQPRRKRAKLIGKYLMGDLLGEGSYGKVKEVLDSETLCRRAVKILKKKKLRRIPNGEANVKKEIQLLRRLRHKNVIQLVDVLYNEEKQKMYMVMEYCVCGMQEMLDSVPEKRFPVCQAHGYFCQLIDGLEYLHSQGIVHKDIKPGNLLLTTGGTLKISDLGVAEALHPFAADDTCRTSQGSPAFQPPEIANGLDTFSGFKVDIWSAGVTLYNITTGLYPFEGDNIYKLFENIGKGSYAIPGDCGPPLSDLLKGMLEYEPAKRFSIRQIRQHSWFRKKHPPAEAPVPIPPSPDTKDRWRSMTVVPYLEDLHGADEDEDLFDIEDDIIYTQDFTVPGQVPEEEASHNGQRRGLPKAVCMNGTEAAQLSTKSRAEGRAPAPARKACSASSKIRRLSACKQQ [N412A], the STK11 functional score was found to be 1.53 ± 0.26.
As to MEVVDPQQLGMFTEGELMSVGMDTFIHRIDSTEVIYQPRRKRAKLIGKYLMGDLLGEGSYGKVKEVLDSETLCRRAVKILKKKKLRRIPNGEANVKKEIQLLRRLRHKNVIQLVDVLYNEEKQKMYMVMEYCVCGMQEMLDSVPEKRFPVCQAHGYFCQLIDGLEYLHSQGIVHKDIKPGNLLLTTGGTLKISDLGVAEALHPFAADDTCRTSQGSPAFQPPEIANGLDTFSGFKVDIWSAGVTLYNITTGLYPFEGDNIYKLFENIGKGSYAIPGDCGPPLSDLLKGMLEYEPAKRFSIRQIRQHSWFRKKHPPAEAPVPIPPSPDTKDRWRSMTVVPYLEDLHGADEDEDLFDIEDDIIYTQDFTVPGQVPEEEASHNGQRRGLPKAVCMNGTEAAQLSTKSRAEGRAPDPARKACSASSKIRRLSACKQQ [N412D], the STK11 functional score was 1.53 ± 0.32.
As to MEVVDPQQLGMFTEGELMSVGMDTFIHRIDSTEVIYQPRRKRAKLIGKYLMGDLLGEGSYGKVKEVLDSETLCRRAVKILKKKKLRRIPNGEANVKKEIQLLRRLRHKNVIQLVDVLYNEEKQKMYMVMEYCVCGMQEMLDSVPEKRFPVCQAHGYFCQLIDGLEYLHSQGIVHKDIKPGNLLLTTGGTLKISDLGVAEALHPFAADDTCRTSQGSPAFQPPEIANGLDTFSGFKVDIWSAGVTLYNITTGLYPFEGDNIYKLFENIGKGSYAIPGDCGPPLSDLLKGMLEYEPAKRFSIRQIRQHSWFRKKHPPAEAPVPIPPSPDTKDRWRSMTVVPYLEDLHGADEDEDLFDIEDDIIYTQDFTVPGQVPEEEASHNGQRRGLPKAVCMNGTEAAQLSTKSRAEGRAMNPARKACSASSKIRRLSACKQQ [P411M], the STK11 functional score is 1.58 ± 0.23.
As to MEVVDPQQLGMFTEGELMSVGMDTFIHRIDSTEVIYQPRRKRAKLIGKYLMGDLLGEGSYGKVKEVLDSETLCRRAVKILKKKKLRRIPNGEANVKKEIQLLRRLRHKNVIQLVDVLYNEEKQKMYMVMEYCVCGMQEMLDSVPEKRFPVCQAHGYFCQLIDGLEYLHSQGIVHKDIKPGNLLLTTGGTLKISDLGVAEALHPFAADDTCRTSQGSPAFQPPEIANGLDTFSGFKVDIWSAGVTLYNITTGLYPFEGDNIYKLFENIGKGSYAIPGDCGPPLSDLLKGMLEYEPAKRFSIRQIRQHSWFRKKHPPAEAPVPIPPSPDTKDRWRSMTVVPYLEDLHGADEDEDLFDIEDDIIYTQDFTVPGQVPEEEASHNGQRRGLPKAVCMNGTEAAQLSTKSRAEGRALNPARKACSASSKIRRLSACKQQ [P411L], the STK11 functional score amounted to 1.16 ± 0.27.
Consider MEVVDPQQLGMFTEGELMSVGMDTFIHRIDSTEVIYQPRRKRAKLIGKYLMGDLLGEGSYGKVKEVLDSETLCRRAVKILKKKKLRRIPNGEANVKKEIQLLRRLRHKNVIQLVDVLYNEEKQKMYMVMEYCVCGMQEMLDSVPEKRFPVCQAHGYFCQLIDGLEYLHSQGIVHKDIKPGNLLLTTGGTLKISDLGVAEALHPFAADDTCRTSQGSPAFQPPEIANGLDTFSGFKVDIWSAGVTLYNITTGLYPFEGDNIYKLFENIGKGSYAIPGDCGPPLSDLLKGMLEYEPAKRFSIRQIRQHSWFRKKHPPAEAPVPIPPSPDTKDRWRSMTVVPYLEDLHGADEDEDLFDIEDDIIYTQDFTVPGQVPEEEASHNGQRRGLPKAVCMNGTEAAQLSTKSRAEGRASNPARKACSASSKIRRLSACKQQ [P411S], for which the STK11 functional score is 1.23 ± 0.49.
For MEVVDPQQLGMFTEGELMSVGMDTFIHRIDSTEVIYQPRRKRAKLIGKYLMGDLLGEGSYGKVKEVLDSETLCRRAVKILKKKKLRRIPNGEANVKKEIQLLRRLRHKNVIQLVDVLYNEEKQKMYMVMEYCVCGMQEMLDSVPEKRFPVCQAHGYFCQLIDGLEYLHSQGIVHKDIKPGNLLLTTGGTLKISDLGVAEALHPFAADDTCRTSQGSPAFQPPEIANGLDTFSGFKVDIWSAGVTLYNITTGLYPFEGDNIYKLFENIGKGSYAIPGDCGPPLSDLLKGMLEYEPAKRFSIRQIRQHSWFRKKHPPAEAPVPIPPSPDTKDRWRSMTVVPYLEDLHGADEDEDLFDIEDDIIYTQDFTVPGQVPEEEASHNGQRRGLPKAVCMNGTEAAQLSTKSRAEGRAKNPARKACSASSKIRRLSACKQQ [P411K], the STK11 functional score was 1.57 ± 0.35.
Regarding MEVVDPQQLGMFTEGELMSVGMDTFIHRIDSTEVIYQPRRKRAKLIGKYLMGDLLGEGSYGKVKEVLDSETLCRRAVKILKKKKLRRIPNGEANVKKEIQLLRRLRHKNVIQLVDVLYNEEKQKMYMVMEYCVCGMQEMLDSVPEKRFPVCQAHGYFCQLIDGLEYLHSQGIVHKDIKPGNLLLTTGGTLKISDLGVAEALHPFAADDTCRTSQGSPAFQPPEIANGLDTFSGFKVDIWSAGVTLYNITTGLYPFEGDNIYKLFENIGKGSYAIPGDCGPPLSDLLKGMLEYEPAKRFSIRQIRQHSWFRKKHPPAEAPVPIPPSPDTKDRWRSMTVVPYLEDLHGADEDEDLFDIEDDIIYTQDFTVPGQVPEEEASHNGQRRGLPKAVCMNGTEAAQLSTKSRAEGRANNPARKACSASSKIRRLSACKQQ [P411N], the STK11 functional score was 1.55 ± 0.18.
For MEVVDPQQLGMFTEGELMSVGMDTFIHRIDSTEVIYQPRRKRAKLIGKYLMGDLLGEGSYGKVKEVLDSETLCRRAVKILKKKKLRRIPNGEANVKKEIQLLRRLRHKNVIQLVDVLYNEEKQKMYMVMEYCVCGMQEMLDSVPEKRFPVCQAHGYFCQLIDGLEYLHSQGIVHKDIKPGNLLLTTGGTLKISDLGVAEALHPFAADDTCRTSQGSPAFQPPEIANGLDTFSGFKVDIWSAGVTLYNITTGLYPFEGDNIYKLFENIGKGSYAIPGDCGPPLSDLLKGMLEYEPAKRFSIRQIRQHSWFRKKHPPAEAPVPIPPSPDTKDRWRSMTVVPYLEDLHGADEDEDLFDIEDDIIYTQDFTVPGQVPEEEASHNGQRRGLPKAVCMNGTEAAQLSTKSRAEGRAVNPARKACSASSKIRRLSACKQQ [P411V], the STK11 functional score was 1.62 ± 0.12.
As for MEVVDPQQLGMFTEGELMSVGMDTFIHRIDSTEVIYQPRRKRAKLIGKYLMGDLLGEGSYGKVKEVLDSETLCRRAVKILKKKKLRRIPNGEANVKKEIQLLRRLRHKNVIQLVDVLYNEEKQKMYMVMEYCVCGMQEMLDSVPEKRFPVCQAHGYFCQLIDGLEYLHSQGIVHKDIKPGNLLLTTGGTLKISDLGVAEALHPFAADDTCRTSQGSPAFQPPEIANGLDTFSGFKVDIWSAGVTLYNITTGLYPFEGDNIYKLFENIGKGSYAIPGDCGPPLSDLLKGMLEYEPAKRFSIRQIRQHSWFRKKHPPAEAPVPIPPSPDTKDRWRSMTVVPYLEDLHGADEDEDLFDIEDDIIYTQDFTVPGQVPEEEASHNGQRRGLPKAVCMNGTEAAQLSTKSRAEGRAINPARKACSASSKIRRLSACKQQ [P411I], the figure is 1.55 ± 0.15; as for MEVVDPQQLGMFTEGELMSVGMDTFIHRIDSTEVIYQPRRKRAKLIGKYLMGDLLGEGSYGKVKEVLDSETLCRRAVKILKKKKLRRIPNGEANVKKEIQLLRRLRHKNVIQLVDVLYNEEKQKMYMVMEYCVCGMQEMLDSVPEKRFPVCQAHGYFCQLIDGLEYLHSQGIVHKDIKPGNLLLTTGGTLKISDLGVAEALHPFAADDTCRTSQGSPAFQPPEIANGLDTFSGFKVDIWSAGVTLYNITTGLYPFEGDNIYKLFENIGKGSYAIPGDCGPPLSDLLKGMLEYEPAKRFSIRQIRQHSWFRKKHPPAEAPVPIPPSPDTKDRWRSMTVVPYLEDLHGADEDEDLFDIEDDIIYTQDFTVPGQVPEEEASHNGQRRGLPKAVCMNGTEAAQLSTKSRAEGRAGNPARKACSASSKIRRLSACKQQ [P411G], 1.14 ± 0.49; as for MEVVDPQQLGMFTEGELMSVGMDTFIHRIDSTEVIYQPRRKRAKLIGKYLMGDLLGEGSYGKVKEVLDSETLCRRAVKILKKKKLRRIPNGEANVKKEIQLLRRLRHKNVIQLVDVLYNEEKQKMYMVMEYCVCGMQEMLDSVPEKRFPVCQAHGYFCQLIDGLEYLHSQGIVHKDIKPGNLLLTTGGTLKISDLGVAEALHPFAADDTCRTSQGSPAFQPPEIANGLDTFSGFKVDIWSAGVTLYNITTGLYPFEGDNIYKLFENIGKGSYAIPGDCGPPLSDLLKGMLEYEPAKRFSIRQIRQHSWFRKKHPPAEAPVPIPPSPDTKDRWRSMTVVPYLEDLHGADEDEDLFDIEDDIIYTQDFTVPGQVPEEEASHNGQRRGLPKAVCMNGTEAAQLSTKSRAEGRARNPARKACSASSKIRRLSACKQQ [P411R], 0.986 ± 0.35.
MEVVDPQQLGMFTEGELMSVGMDTFIHRIDSTEVIYQPRRKRAKLIGKYLMGDLLGEGSYGKVKEVLDSETLCRRAVKILKKKKLRRIPNGEANVKKEIQLLRRLRHKNVIQLVDVLYNEEKQKMYMVMEYCVCGMQEMLDSVPEKRFPVCQAHGYFCQLIDGLEYLHSQGIVHKDIKPGNLLLTTGGTLKISDLGVAEALHPFAADDTCRTSQGSPAFQPPEIANGLDTFSGFKVDIWSAGVTLYNITTGLYPFEGDNIYKLFENIGKGSYAIPGDCGPPLSDLLKGMLEYEPAKRFSIRQIRQHSWFRKKHPPAEAPVPIPPSPDTKDRWRSMTVVPYLEDLHGADEDEDLFDIEDDIIYTQDFTVPGQVPEEEASHNGQRRGLPKAVCMNGTEAAQLSTKSRAEGRAFNPARKACSASSKIRRLSACKQQ [P411F]: the STK11 functional score was found to be 0.906 ± 0.61.
As to MEVVDPQQLGMFTEGELMSVGMDTFIHRIDSTEVIYQPRRKRAKLIGKYLMGDLLGEGSYGKVKEVLDSETLCRRAVKILKKKKLRRIPNGEANVKKEIQLLRRLRHKNVIQLVDVLYNEEKQKMYMVMEYCVCGMQEMLDSVPEKRFPVCQAHGYFCQLIDGLEYLHSQGIVHKDIKPGNLLLTTGGTLKISDLGVAEALHPFAADDTCRTSQGSPAFQPPEIANGLDTFSGFKVDIWSAGVTLYNITTGLYPFEGDNIYKLFENIGKGSYAIPGDCGPPLSDLLKGMLEYEPAKRFSIRQIRQHSWFRKKHPPAEAPVPIPPSPDTKDRWRSMTVVPYLEDLHGADEDEDLFDIEDDIIYTQDFTVPGQVPEEEASHNGQRRGLPKAVCMNGTEAAQLSTKSRAEGRAWNPARKACSASSKIRRLSACKQQ [P411W], the STK11 functional score worked out at 0.581 ± 0.075.
